Key:
[1] = target: T1, human LILRB1 on CHOK1 cells (human, UniProt Q8NHL6 24-650); test: FACS binding, CHOK1-hLILRB1 cells
T1 construct: whole, on cells; also called CHOK1-hLILRB1; CHOK1-LILRB1

[2] = target: T1, human LILRB1 on CHOK1 cells; test: cell-based RBA (FACS): blocking of HLA-G binding to CHOK1-hLILRB1 cells
[3] = target: T2, human LILRB2 on CHOK1 cells (human, UniProt Q8N423 22-597); test: FACS binding, CHOK1-hLILRB2 cells
T2 construct: whole, on cells; also called CHOK1-hLILRB2; CHOK1-LILRB2
T2 sequence (Q8N423 22-597): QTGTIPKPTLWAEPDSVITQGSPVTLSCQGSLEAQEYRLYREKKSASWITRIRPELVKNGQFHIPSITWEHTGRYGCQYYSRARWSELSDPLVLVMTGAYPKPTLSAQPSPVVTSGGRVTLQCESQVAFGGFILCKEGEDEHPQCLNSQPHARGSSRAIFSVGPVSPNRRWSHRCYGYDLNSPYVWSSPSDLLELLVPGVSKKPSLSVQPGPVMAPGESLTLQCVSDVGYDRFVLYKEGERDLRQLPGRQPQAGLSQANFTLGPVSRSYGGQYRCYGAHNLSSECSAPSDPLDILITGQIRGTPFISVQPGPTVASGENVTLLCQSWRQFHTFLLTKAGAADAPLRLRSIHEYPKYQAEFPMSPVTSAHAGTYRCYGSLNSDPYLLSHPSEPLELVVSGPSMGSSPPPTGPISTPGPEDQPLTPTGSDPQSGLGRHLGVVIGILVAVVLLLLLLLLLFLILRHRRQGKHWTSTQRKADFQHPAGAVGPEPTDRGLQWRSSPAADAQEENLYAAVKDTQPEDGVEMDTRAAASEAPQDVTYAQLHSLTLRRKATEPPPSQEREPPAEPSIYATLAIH

T1 sequence (Q8NHL6 24-650): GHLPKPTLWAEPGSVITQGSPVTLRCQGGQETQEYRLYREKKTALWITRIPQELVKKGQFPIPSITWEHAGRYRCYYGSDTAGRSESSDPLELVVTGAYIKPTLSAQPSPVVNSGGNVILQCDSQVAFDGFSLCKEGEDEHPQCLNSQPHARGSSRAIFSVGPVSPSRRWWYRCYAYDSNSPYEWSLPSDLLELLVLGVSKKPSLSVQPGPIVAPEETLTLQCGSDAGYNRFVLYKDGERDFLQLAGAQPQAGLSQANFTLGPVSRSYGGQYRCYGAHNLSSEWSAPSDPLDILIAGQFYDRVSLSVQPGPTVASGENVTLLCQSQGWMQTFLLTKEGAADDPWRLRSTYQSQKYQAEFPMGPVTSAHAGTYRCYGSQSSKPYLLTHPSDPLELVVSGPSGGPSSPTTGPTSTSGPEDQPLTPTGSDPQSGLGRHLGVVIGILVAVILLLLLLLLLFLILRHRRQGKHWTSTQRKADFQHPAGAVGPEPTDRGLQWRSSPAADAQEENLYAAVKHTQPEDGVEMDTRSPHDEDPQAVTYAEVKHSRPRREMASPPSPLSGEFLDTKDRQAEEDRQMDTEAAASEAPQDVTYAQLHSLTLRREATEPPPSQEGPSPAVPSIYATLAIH

Binder	EC50 [1]	EC50 [2]	Top Inhibition (%) [2]	binding result [3]	EC50 [3]
LK-RB1-23 (antibody, human IgG4 S228P, kappa, V domains shown) VH: QVQLQQTGAELVRPGSSVKLSCKASGYTFTNYWMDWVKQRPGQGLEWIGNIHPFGNETHYNQKFKDKATLTVDKSSSTAYMQLSSLTSEDSAVYYCARGLLLYFDVWGTGTTVTVSS VL: DIQMTQSPASQSVSVGETVTITCRASENIYSNLAWYQQKQGKSPQLLVYGATNLADGVSLRFSGSGSGTQYSLKINSLQSEDFGSYYCQHFWGIPWTFGGGTKLEIKR	0.73 nM	0.56 nM	95.3%	no binding	
LK-RB1-27 (antibody, human IgG4 S228P, kappa, V domains shown) VH: QVQLQQSGPELVKPGASVRMSCKASGYTFTSHYIHWMKQRPGQGLEWIGWIYPGDGHTKYHEKFKDRATLTADTSSITAYMRLSSLTSEDSAIYYCVYYSDSWFPYWGQGTLVTVSA VL: DIQMTQSPASLSVSVGETVTITCRASENIYSNLAWYQQKQGKSPHLLVYAATNLADGVPSRFSGSGSGTQYSLKINSLQSEDFGNYYCQHFWGSPWTFGGGTKLEIKR	0.71 nM	0.9 nM	98.7%		4.95 nM
LK-RB1-24 (antibody, human IgG4 S228P, kappa, V domains shown) VH: QVQLQQPGAELVNPGTSVNLSCKASGYTFTGYWMHWVKQRPGQGLEWIGMIHPNNGGTIYNERFNGKATLTVDRSSTTAYIQLSSLTSEDSAVYYCAYWDLDYWGQGTTLTVSS VL: not shown	1.48 nM	9.07 nM	64.8%		1.04 nM
LK-RB1-25 (antibody, human IgG4 S228P, kappa, V domains shown) VH: QIQLVQSGPELKKPGETVKISCKASGYTFTSYGMNWMKQAPGEGLKWMGWINTYSGVPTYADDFKGRFAFSLETSATTVYLQINNLKNEDKATYFCARRGRDSVVGHFDVWGTGTTVTVSS VL: DIVMTQSHKFMSTSVGDRVSITCKASQDVNTAVAWYQQKPGQSPKLLIYWASTRHTGVPDRFTGSGSGTDFTLTISSVQAEDLALYYCQQHYTIPFTFGSGTKLEIKR	1.07 nM	0.62 nM	98.1%	no binding	

The remaining lines, values ahead:

EC50 [1]	EC50 [2]	Top Inhibition (%) [2]	binding result [3]	EC50 [3]	Binder
0.51 nM	0.69 nM	99.6%	no binding		LK-RB1-26 (antibody, human IgG4 S228P, kappa, V domains shown) VH: QVQLKESGPGLVAPSQSLSITCTVSGFSLTSYGVSWVRQPPGKGLEWLGIIWGDGSTNYHSALISRLSISKDNSKSQVFLKLNSLQTDDTATYYCAKPNWDYYAMDYWGQGTSVTVSS VL: DIQMTQTTSSLSASLGDRVTISCRASQDISNFLNWYQQKPDGTFKLLISYTSTLHSGVPSRFSGSGSGTDYSLTISNLEQEDVATYFCQQGNTLPLTFGAGTKLALKR
2.38 nM	2.93 nM	93.3%	no binding		LK-RB1-29 (antibody, human IgG4 S228P, kappa, V domains shown) VH: QVQLKESGPGLVAPSQNLAITCTVSGFSLTNSGVSWVRQSPGKGLEWLGIIWGDGNTNYHSALISRLSISKDNSKSQVFLKLNSLQTDDTGTYYCAKPNWDYYALDYWGQGTSVTVSS VL: DIQMTQTASSLFASLGDRVTISCRASQDISNYLNWYQQKPDGSIKLLISYTSRLHSGVPSRFSGSGSGTDYSLSISNLEQEDIATYFCQQGISLPCTFGGGTKLEVNR
1.13 nM	1.38 nM	92.7%	no binding		LK-RB1-33 (antibody, human IgG4 S228P, kappa, V domains shown) VH: QIQLVQSGPELKKPGDTVKISCKASGYTFTSYGMNWVKQAPGEGLKWMGWINTYSGVPTYGDDFKGRFAFSLETSASTAYLQINNLENEDTATYFCARRGRDSVVGHFDVWGTGTTVTVSS VL: DIVMTQSHKFMSTSVGDRVSITCKASQDVNTAVAWYQQKPGQSPKLLIYWASTRHTGVPDRFTGSGSGTDFTLTISSVQAEDLALYYCQQHYTIPFTFGSGTRLEIKR

Reference: US20260234247A1 (published 2026)
